Target: trypsin-digested STING c-di-GMP binding domain (CBD) (human) (UniProt Q86WV6)
Assay: SEC

Work on “trypsin-digested STING c-di-GMP binding domain (CBD) (from UniProt Q86WV6 139-379) (domain or fragment)” yielded a stoichiometry N of 2.

From article PMC3697849
